Data on nine sequences can be found in a protein production outcome set (Wang et al. 2014).

This series can be described thus: label from the status in PepcDB records.
Regarding “MQFIKRAHGEEQPYWPAGPFKIRLPFVHYRWELPEMIQGFFMFVVGLAMIPLLESYLGMPYEAALAFTFVAGVGYILPALLGVPLVPGWITPAIPVVLLYLKGFEPGPEAIRALFALQIEVAIIFLILGATRLGSKLVDVIPNSLKCGIIIGAGMAAMMGELKIGGRIDATPISLIVGSIISAYILFSLSFKNVINENSFARKIANFGMVPGMIIAMLVGWTVGEYPLPDIKWGITNPDFSLMWQYLPFTVGYPDWEIFLLAIPTALIAYVIAFGDILVGFTLVNRVDHIRKDEKIEENVDRVHLVTAIRNGFHAFLAPWPGLAGPLWTAAHATVAERYAMGRKSMESIYSGGGTFWMSGLLALFALPLVTLFKPVLPIALSLTLVLTAYICIMVGMEQLKNSTERGVAGIVAVTLAMPDPKSTMYAVCIGVILYFLIERPRLMGKHNSEDNIIFADETQEEVAVTNSNNT”, the protein production result is recorded as “failed”.
As for “MQFIYSIIGILLVLGIVYAISFNRKSVSLSLIGKALIVQFIIALILVRIPLGQQVVSVVSTGVTKVINCGQAGLNFVFGSLADSGAKTGFIFAIQTLGNIVFLSALVSLLYYVGILGFVVKWIGKGVGKIMKSSEVESFVAVANMFLGQTDSPILVSKYLGRMTDSEIMVVLVSGMGSMSVSILGGYIALGIPMEYLLIASTMVPIGSILIAKILLPQTEPVQKIDDIKMDNKGNNANVIDAIAEGASTGAQMAFSIGASLIAFVGLVSLINMMLSGLGIRLEQIFSYVFAPFGFLMGFDHKNILLEGNLLGSKLILNEFVSFQQLGDLIKSLDYRTALVATISLCGFANLSSLGICVSGIAVLCPEKRGTLARLVFRAMIGGIAVSMLSAFIVGIVTLF”, the protein production result is reported as “failed”.
Then “MQGADADTVADALASDDALPGAGGFAGELDGTLVRDVLGRYPLFVERAVSDEARLDPGQWSHDPTALADPRSFPAGHIRNESGTQQRWSLPSLDPFGDRETAIETVGETVETSIDAVDTDSLAIAFSGGVDSALLAARLDAPLYVAGFPDSHDIEAARSAAELLGTEVRVVELTHDAIERAVPEIARATARTNAMDVQIALPLYLVAERVAGDGFDRLALGQGADELFGGYAKVAKAPEDPRVEADTVRGAQREVIASLPDQLERDVLALRAAGVEPVTPLLHDRVIGAALRLDGDLLVDGETRKVALRAAARESLPDEIADRDKKAAQYGSLAARELDRLARQAGYKRRMDDHVTQYVESLVE”, with “failed”.
The entry for “MQGAGRLMQPRPDSAFVHDVRVTWGDCDPAKIAYTGHLPRFALEAIDAWWSEYHGPGGWYHLELDTNVGTPFVRLEMDFKSPVTPRHILKCHTWPTRLGTKSITFRVDGVQDGVTCFVGAFTCVFTIADQFKSQPAPDHLRALIEPHIPA” is “not failed”; for “MQGQEDEVVLVEGPTLPETPRLFPLKIRCRADLVRLPLRMSEPLQSVVDHMATHLGVSPSRILLLFGETELSPTATPRTLKLGVADIIDCVVLTSS” it is “not failed”.
As for “MQGTKIRLMVGGLLLAAASNNVQAEALQPDPAWQQGKLDNGFSWQLLATPQRPSDRIELRLIVNTGSLSENTQEVGFAHLLPRLALMSSASFTPAQLQSLWQQGIDNERPLPPAITSYDFTLYSLSLPNNRPDLLKDALAWLSDTAGNLAVSEQTVNAALNTATDPIATFPQNIQEPWWRYRLKGSSLIGHDPGQPVTQPVDVEKLKQFYQQWYTPDAMTLYVVGNVDSRSIAAQISKAFSELKGKRTAPAAVATLAPLPPEPVSLMNEQAAQDTLSLMWDTPWHPIQDSMALSRYWRSDLAREALFWHIKQVLEKNNQKNLKLGFDCRVQYQRAQCAIHLNTPVENLTANMTFVARELAALRANGLSQAEFDALMTQKNDQLSKLFATYARTDTDILMSQRLRSQQSGVVDIAPEQYQKLRQAFLSGLTLAELNRELKQQLSQDTTLVLMQPKGEPEVNVKALQEIYNGIMAPQTVAEEEVAPAEAVETAPVMPTTAQ”, the protein production entry is recorded as “failed”.
The entry for “MQGVLLALVPMFAWGSIGFVANKFGGDAKQQTLGMTLGAFVFALIVFLFRMPTLTWQIFLIGFIGGLLWAIGQFGQFNSMKYMGVSVASPLSSGSQLVIGGLIGVFAFHEWTKQIQFILGFIAMAVLVVGFYFSAKRDPENAVVEEGRNYTKGLTALTYSTLGYVIYVILFNNLAVLWFNVHFDTLTIILPMSVGMIFGALVMGRFKIKMEKYVYQNMIVGAMWGVGNIFMLMAASAAGNAIAFSFSQLGVIVSTIGGILFLGEKKTKKELVYVGIGIVLFVTGAILLAIVKSKG” is “failed”; for “MQHGARHRWGLTSGYRPGSGRRPGPSAVVAVAAFALVVASQGAAVARPAQAAAADREFASSFESGEPAPDWLSTVDTAADGSKRASGVDGGYSTGIPGNVTDHVTDVRAGAENTGAGEVKENLVDGESSTKWLTFTPTGWAEFDLDAPVKLVTYALTSANDADERDPADWTLQGSTDGKDWKTLDTRTGESFAERFQTKSYDLASPAEYQHFRLDITKNHGADLLQLADVQFSTGGTSDPAPKDMLSLVDRGPSGSPTAKAGAGFTGKRALRYAGTHKADARAYSYNKVFDVNVGVGRDTELSYRIFPSMADKDRDYDATNVSVDLVFTDGTYLSDLKATDQHGFALTPQGQGAAKILYVNQWNNVVSRIGSVAAGRTVDRILVAYDSPKGPAKFRGWLDDIALKAAPPEKPKAHLSDYALTTRGTNSSSGFSRGNNFPATAVPHGFNFWTPVTNAGSLSWLYDYARSNNADNLPTIQAFSASHEPSPWMGDRQTFQVMPSAASGTPDTGRTARALAFRHENETARPYYYGVTFENGLKAEMAPTDHAAALRFTYPGDDASVLFDNVTDQAGLTLDKEHGIVTGYSDVKSGLSTGATRLFVYGVFDAPVKEGASSGVKGYLRFAPGADHTVTLRLATSLISVDQAKDNLGQEIPDGTSFTTVKNRAQQQWDKLLGKVEVEGATPDQLTTLYSSMYRLYLYPNSGFEKIGSKYRYASPFQPMPSPDTPTHTGAKIVDGKVYVNNGFWDTYRTTWPAYSFLTPGQAGEMVDGFVQQYKDGGWTSRWSSPGYADLMTGTSSDVAFADAYVKGVDFDAKAAYDAAVKNATVVPPSSGVGRKGMATSPFLGYTSTDTSEGLSWAMEGYNNDYGIARMGQALYKKTGKKRYKEEAAYFLNRAQDYVKLFDGKAGFFQGRDGKGDWRVDSATYDPRVWGYDYTETNGWGYAFTAPQDSRGLANLYGGRGALAKKLDTYFATPETASPDFVGSYGGVIHEMTEARDVRMGMYGHSNQVAHHVNYMYDAAGRPWKTQANVREVLSRLYTGSEIGQGYHGDEDNGEQSAWYLFSALGFYPLVMGSGEYAIGSPLFTKATVHLENGRDLVVKAPKNSAKNVYVQGLKVNGKKWTSTSLPHSLIAKGGVLAFDMGAKPSSWGSGGGAGPVSITKGDQVPSPRADAIKGGGALFDDTSATSATVTSVELPVAARTKAVQYTLTSSSDHTAAPAGWVLEASADGTHWTTVDRRTDESFTWDRQTRVFSIAHPGKYAHYRLVPTAEATLAEVELLS” it is “failed”.
Then “MQHPRQGPPSRHTRRSLGRSLALTMTAVLGAAGLALSPAASADSGPTTADPTEAHGLKGEYYTQSAPGAFDFAELKATGFDPGLDFDSLESRLSAATGRADDVSVRWTGEVVPEKSGPTTFSITGDNGFRLWVDGKLTIDHWVDDWDREQTSQPVDLTAGRAYDIKVEYFEHFGGSNLHLRWTPPGGSKSAVPQSAFRLPDGFDYNGALSATVLGDGRTVRLDFPQALASAPATVLDHLTVTSGGKWPLSSVKTDPSDARALLVGLGEPVVGNKAGTAKGGVNVTYDGKGALADTSGTPVKAFWSSGPNKSTYELRTKWADQVGPKNALPEYPRPQLTRKAWQNLNGTWQFAGAKAGEEPPTGRTLAERILVPYPVESQLSGIERHEDRMWYRRTFTVPADWKVGHGKRLRLNFGAVDWQSEVYVNGTKVAEHKGGYDKFSADVTDALKPGRTQELIVGVYDPTDAQGGENPPLGKQRLDPSGIWYTPSSGIWQTVWMEPVAADHVDTLKLTPDVETSTLTVEPKGVRDGLAVTATAYDGKKKVATVRGRTGTPLTLKLAEPRLWSPDDPFLYDLKVDVGADRVGSYFGMRSIAVEKVDGTPRTVLNGKPVFMMATLDQGFWPDGLHTAPTDDALAHDLKMHKQMGFNSVRKHIKVEPDRWFYWADRLGLLVWQDMPAMTAGVNPNAASRAEYEREMKQLIDEHISSPSVVMWVTFNEGWGQYDEARIADQAKAWDPTRLVNSMSGLNLGVDGGTGDVMDEHGYPSPALPPHPDGRRALVSGEYGGLGLGVPGHAWSVQMSYVDVDPAAYTDTYLARLDEVRRLACRGGNGAVYTQISDVEGELNGLMTYDRKIVKPDVQRLRTAHEALIEAVAQSTLPCATS”, with “failed”.
